The text below walks through data of patent US20100150834A1 (BURNHAM INSTITUTE, published 2010).

To fix the notation:
T1: EphB4 (receptor of Table 1) (Mus musculus (Mouse), UniProt P54761 16-539)
T1 sequence: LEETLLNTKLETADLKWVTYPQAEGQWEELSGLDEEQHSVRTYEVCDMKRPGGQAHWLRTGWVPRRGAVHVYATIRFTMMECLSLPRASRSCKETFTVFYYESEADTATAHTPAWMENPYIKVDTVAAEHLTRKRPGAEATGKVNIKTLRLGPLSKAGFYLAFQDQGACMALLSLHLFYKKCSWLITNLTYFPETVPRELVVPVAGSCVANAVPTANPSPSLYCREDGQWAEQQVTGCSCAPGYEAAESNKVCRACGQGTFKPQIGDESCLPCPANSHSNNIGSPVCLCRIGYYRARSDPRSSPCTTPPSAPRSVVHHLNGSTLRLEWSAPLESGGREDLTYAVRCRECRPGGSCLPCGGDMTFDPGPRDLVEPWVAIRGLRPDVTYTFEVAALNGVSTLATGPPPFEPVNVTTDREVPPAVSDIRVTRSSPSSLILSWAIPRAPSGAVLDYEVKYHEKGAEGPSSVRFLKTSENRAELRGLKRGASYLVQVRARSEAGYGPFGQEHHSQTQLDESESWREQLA

T2: murine EphB4 ectodomain (murine, UniProt P54761 16-539)
T2 construct: extracellular domain; Coated on wells; also called immobilized EphB4 receptor ectodomain
T2 sequence (looked up): T1 sequence

Broadly, the IC50 is the concentration needed to halve the response being measured.

The first test has as its target EphB1 (receptor of Table 1). Description: EphB receptor specificity panel (% binding).
For GPVHRAWEPTSH (Panned on EphB4) [GPVHRAWEPTSH peptide (SEQ ID NO:29)], the “% Binding” value came out at 4%.
As to GPVERAWRPDLI (Panned on EphB4) [GPVERAWRPDLI peptide (SEQ ID NO:30)], the “% Binding” value came out at 1%.
Same read-out and setting: the value for WPPHWPRSLDYA (Panned on EphB2) [WPPHWPRSLDYA peptide (SEQ ID NO:17)] was 0%.
Still for that read-out and setting: for FSPQGPAARNFA (Panned on EphB4) [FSPQGPAARNFA peptide (SEQ ID NO:25)] the value was 13%; for SHKFPGPPSWMS (Panned on EphB1) [SHKFPGPPSWMS peptide (SEQ ID NO:4)], 88%; for TTLSQLPKSTWL (Panned on EphB1) [TTLSQLPKSTWL peptide (SEQ ID NO:2)], 100%.
Still for that read-out and setting: the value for LPHGPVAAAWDA (Panned on EphB4) [LPHGPVAAAWDA peptide (SEQ ID NO:26)] was 2%.
For EFFTWRPTYYGI (Panned on EphB4) [EFFTWRPTYYGI peptide (SEQ ID NO:23)], the “% Binding” value was found to be 16%.
Consider THWKFQPWALVT (Panned on EphB1) [THWKFQPWALVT peptide (SEQ ID NO:5)], for which the “% Binding” value is 86%.
The same measure, in the same setting: the value for DHWPLLPYALAH (Panned on EphB2) [… peptide (SEQ ID NO:16)] was 4%.

The target in the next test is EphB2 (receptor of Table 1). Description: EphB receptor specificity panel (% binding).
For GPVHRAWEPTSH (Panned on EphB4) [GPVHRAWEPTSH peptide (SEQ ID NO:29)], the “% Binding” value turned out to be 6%.
Still for that read-out and setting: the value for GPVERAWRPDLI (Panned on EphB4) [GPVERAWRPDLI peptide (SEQ ID NO:30)] was 2%; that for WPPHWPRSLDYA (Panned on EphB2) [WPPHWPRSLDYA peptide (SEQ ID NO:17)] was 100%; that for FSPQGPAARNFA (Panned on EphB4) [FSPQGPAARNFA peptide (SEQ ID NO:25)] was 8%.
On the same count and under the same terms, for SHKFPGPPSWMS (Panned on EphB1) [SHKFPGPPSWMS peptide (SEQ ID NO:4)] the value was 100%; for TTLSQLPKSTWL (Panned on EphB1) [TTLSQLPKSTWL peptide (SEQ ID NO:2)], 0%; for LPHGPVAAAWDA (Panned on EphB4) [LPHGPVAAAWDA peptide (SEQ ID NO:26)], 15%.
The same measure, in the same setting: the value for EFFTWRPTYYGI (Panned on EphB4) [EFFTWRPTYYGI peptide (SEQ ID NO:23)] was 12%.
Turning to THWKFQPWALVT (Panned on EphB1) [THWKFQPWALVT peptide (SEQ ID NO:5)], the “% Binding” value turned out to be 100%.
On the same count and under the same terms, the value for DHWPLLPYALAH (Panned on EphB2) [… peptide (SEQ ID NO:16)] was 100%.

The target in another test is EphB3 (receptor of Table 1). Description: EphB receptor specificity panel (% binding).
As for GPVHRAWEPTSH (Panned on EphB4) [GPVHRAWEPTSH peptide (SEQ ID NO:29)], the “% Binding” value is 16%.
Consider GPVERAWRPDLI (Panned on EphB4) [GPVERAWRPDLI peptide (SEQ ID NO:30)], for which the “% Binding” value was 1%.
For the molecule WPPHWPRSLDYA (Panned on EphB2) [WPPHWPRSLDYA peptide (SEQ ID NO:17)], the “% Binding” value turned out to be 0%.
On the same count and under the same terms, the value for FSPQGPAARNFA (Panned on EphB4) [FSPQGPAARNFA peptide (SEQ ID NO:25)] was 11%.
Consider SHKFPGPPSWMS (Panned on EphB1) [SHKFPGPPSWMS peptide (SEQ ID NO:4)], for which the “% Binding” value turned out to be 10%.
In the case of TTLSQLPKSTWL (Panned on EphB1) [TTLSQLPKSTWL peptide (SEQ ID NO:2)], the “% Binding” value came out at 1%.
As to LPHGPVAAAWDA (Panned on EphB4) [LPHGPVAAAWDA peptide (SEQ ID NO:26)], the “% Binding” value was determined as 2%.
The same measure, in the same setting: the value for EFFTWRPTYYGI (Panned on EphB4) [EFFTWRPTYYGI peptide (SEQ ID NO:23)] was 29%.
As for THWKFQPWALVT (Panned on EphB1) [THWKFQPWALVT peptide (SEQ ID NO:5)], the “% Binding” value came out at 5%.
Still for that read-out and setting: the value for DHWPLLPYALAH (Panned on EphB2) [… peptide (SEQ ID NO:16)] was 7%.

A further test has as its target T1, EphB4 (receptor of Table 1). In words: EphB receptor specificity panel (% binding).
On to SGHQLLLNKMPN (Panned on EphB4) [SGHQLLLNKMPN peptide (SEQ ID NO:35)], for which the “% Binding” value is 100%.
On the same count and under the same terms, for GPVHRAWEPTSH (Panned on EphB4) [GPVHRAWEPTSH peptide (SEQ ID NO:29)] the value was 100%; for GPVERAWRPDLI (Panned on EphB4) [GPVERAWRPDLI peptide (SEQ ID NO:30)], 100%.
In the case of WPPHWPRSLDYA (Panned on EphB2) [WPPHWPRSLDYA peptide (SEQ ID NO:17)], the “% Binding” value was found to be 0%.
Same read-out and setting: the value for FSPQGPAARNFA (Panned on EphB4) [FSPQGPAARNFA peptide (SEQ ID NO:25)] was 100%; that for SHKFPGPPSWMS (Panned on EphB1) [SHKFPGPPSWMS peptide (SEQ ID NO:4)] was 9%.
Same read-out and setting: the value for TTLSQLPKSTWL (Panned on EphB1) [TTLSQLPKSTWL peptide (SEQ ID NO:2)] was 0%; that for IPWTQHMAMSPM (Panned on EphB4) [… peptide (SEQ ID NO:34)] was 100%; that for LPHGPVAAAWDA (Panned on EphB4) [LPHGPVAAAWDA peptide (SEQ ID NO:26)] was 100%.
On the same count and under the same terms, the value for EFFTWRPTYYGI (Panned on EphB4) [EFFTWRPTYYGI peptide (SEQ ID NO:23)] was 100%.
As to THWKFQPWALVT (Panned on EphB1) [THWKFQPWALVT peptide (SEQ ID NO:5)], the “% Binding” value was 0%.
Still for that read-out and setting: for DHWPLLPYALAH (Panned on EphB2) [… peptide (SEQ ID NO:16)] the value was 0%.

A further test deals with EphB6 (receptor of Table 1). Description: EphB receptor specificity panel (% binding).
For the molecule GPVHRAWEPTSH (Panned on EphB4) [GPVHRAWEPTSH peptide (SEQ ID NO:29)], the “% Binding” value was found to be 7%.
On the same count and under the same terms, the value for GPVERAWRPDLI (Panned on EphB4) [GPVERAWRPDLI peptide (SEQ ID NO:30)] was 3%; that for WPPHWPRSLDYA (Panned on EphB2) [WPPHWPRSLDYA peptide (SEQ ID NO:17)] was 0%; that for FSPQGPAARNFA (Panned on EphB4) [FSPQGPAARNFA peptide (SEQ ID NO:25)] was 11%.
In the case of SHKFPGPPSWMS (Panned on EphB1) [SHKFPGPPSWMS peptide (SEQ ID NO:4)], the “% Binding” value was found to be 0%.
Still for that read-out and setting: for TTLSQLPKSTWL (Panned on EphB1) [TTLSQLPKSTWL peptide (SEQ ID NO:2)] the value was 0%; for LPHGPVAAAWDA (Panned on EphB4) [LPHGPVAAAWDA peptide (SEQ ID NO:26)], 4%; for EFFTWRPTYYGI (Panned on EphB4) [EFFTWRPTYYGI peptide (SEQ ID NO:23)], 17%.
As for THWKFQPWALVT (Panned on EphB1) [THWKFQPWALVT peptide (SEQ ID NO:5)], the “% Binding” value turned out to be 0%.
For the molecule DHWPLLPYALAH (Panned on EphB2) [… peptide (SEQ ID NO:16)], the “% Binding” value amounted to 0%.

In a further test the target is T1, EphB4 (receptor of Table 1). Description: inhibition of ephrin-B2 AP binding to EphB4 (panning receptor).
FSPQGPAARNFA (Panned on EphB4) [FSPQGPAARNFA peptide (SEQ ID NO:25)]: the IC50 was greater than 600000 nM.

Another test deals with T2, murine EphB4 ectodomain. Description: inhibition of murine ephrin-B2 AP binding to immobilised murine EphB4 ectodomain.
For the molecule LFSPNGPIARAW [L-RAW peptide LFSPNGPIARAW (SEQ ID NO:42)], the half-inhibitory concentration (IC50) was greater than 10000 nM.
On the same count and under the same terms, the value for YLFSPNGPIARAW [YL-RAW peptide YLFSPNGPIARAW (SEQ ID NO:41)] was roughly 40 nM.
The same measure, in the same setting: for NYLFSPNGPIARAW [NYL-RAW peptide NYLFSPNGPIARAW (SEQ ID NO:40)] the value was roughly 40 nM.
